Assay results: patent US20240141072A1 (published 2024)

Assays:
Experiment in all cases: Octet BLI; biotinylated huDLL3-IgG1 fusion on streptavidin tips; single 50 nM trispecific, conditioned medium
[1] = target: T1, anti-DLL3 trispecific protein with DLL3 binding domain 54B05
T1 construct: trispecific, one chain
Method: (§1) Using the conditioned medium with known concentrations of the anti-DLL3 trispecific proteins, the relative binding affinities of the anti-DLL3 trispecific proteins toward human DLL3 protein were measured using a method where biotinylated version of human DLL3 protein were expressed as a human IgG1 fusion protein, and the binding affinity measurement was carried out in an Octet instrument with streptavidin tips.

[2] = target: T2, anti-DLL3 trispecific protein with DLL3 binding domain 41G01
T2 construct: trispecific, one chain
Method: as §1

[3] = target: T3, anti-DLL3 trispecific protein with DLL3 binding domain 51F01
T3 construct: trispecific, one chain
Method: as §1

[4] = target: T4, anti-DLL3 trispecific protein with DLL3 binding domain 51A03
T4 construct: trispecific, one chain
Method: as §1

[5] = target: T5, anti-DLL3 trispecific protein with DLL3 binding domain 51H05
T5 construct: trispecific, one chain; also called 51H5
Method: as §1

[6] = target: T6, anti-DLL3 trispecific protein with DLL3 binding domain 41F07
T6 construct: trispecific, one chain
Method: as §1

[7] = target: T7, anti-DLL3 trispecific protein with DLL3 binding domain 51G02
T7 construct: trispecific, one chain; also called 51G2
Method: as §1

[8] = target: T8, anti-DLL3 trispecific protein with DLL3 binding domain 51E03
T8 construct: trispecific, one chain
Method: as §1

[9] = target: T9, anti-DLL3 trispecific protein with DLL3 binding domain 53A05
T9 construct: trispecific, one chain
Method: as §1

[10] = target: T10, anti-DLL3 trispecific protein with DLL3 binding domain 42D06
T10 construct: trispecific, one chain
Method: as §1

[11] = target: T11, anti-DLL3 trispecific protein with DLL3 binding domain 42H08
T11 construct: trispecific, one chain
Method: as §1

[12] = target: T12, anti-DLL3 trispecific protein with DLL3 binding domain 53A09
T12 construct: trispecific, one chain
Method: as §1

[13] = target: T13, anti-DLL3 trispecific protein with DLL3 binding domain 51A05
T13 construct: trispecific, one chain; also called 51A5
Method: as §1

[14] = target: T14, anti-DLL3 trispecific protein with DLL3 binding domain 42E01
T14 construct: trispecific, one chain
Method: as §1

[15] = target: T15, anti-DLL3 trispecific protein with DLL3 binding domain 51G04
T15 construct: trispecific, one chain
Method: as §1

[16] = target: T16, anti-DLL3 trispecific protein with DLL3 binding domain 41D01
T16 construct: trispecific, one chain
Method: as §1

[17] = target: T17, anti-DLL3 trispecific protein with DLL3 binding domain 41E01
T17 construct: trispecific, one chain
Method: as §1

T7 sequence (chain, as listed by the source): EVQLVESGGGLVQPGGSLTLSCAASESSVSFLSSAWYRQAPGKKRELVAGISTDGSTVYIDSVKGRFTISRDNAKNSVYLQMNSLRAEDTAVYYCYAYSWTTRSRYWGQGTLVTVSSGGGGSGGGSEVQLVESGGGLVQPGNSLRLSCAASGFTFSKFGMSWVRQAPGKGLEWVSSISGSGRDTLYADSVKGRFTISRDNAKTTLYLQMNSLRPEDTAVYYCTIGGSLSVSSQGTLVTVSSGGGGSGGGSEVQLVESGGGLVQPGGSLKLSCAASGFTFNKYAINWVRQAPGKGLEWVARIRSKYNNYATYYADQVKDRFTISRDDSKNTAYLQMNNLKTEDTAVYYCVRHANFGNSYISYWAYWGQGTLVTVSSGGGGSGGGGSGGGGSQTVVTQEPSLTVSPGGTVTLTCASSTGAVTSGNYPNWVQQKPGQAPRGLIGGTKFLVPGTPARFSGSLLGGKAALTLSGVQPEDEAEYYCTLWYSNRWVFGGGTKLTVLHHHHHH
T1 sequence (chain, as listed by the source): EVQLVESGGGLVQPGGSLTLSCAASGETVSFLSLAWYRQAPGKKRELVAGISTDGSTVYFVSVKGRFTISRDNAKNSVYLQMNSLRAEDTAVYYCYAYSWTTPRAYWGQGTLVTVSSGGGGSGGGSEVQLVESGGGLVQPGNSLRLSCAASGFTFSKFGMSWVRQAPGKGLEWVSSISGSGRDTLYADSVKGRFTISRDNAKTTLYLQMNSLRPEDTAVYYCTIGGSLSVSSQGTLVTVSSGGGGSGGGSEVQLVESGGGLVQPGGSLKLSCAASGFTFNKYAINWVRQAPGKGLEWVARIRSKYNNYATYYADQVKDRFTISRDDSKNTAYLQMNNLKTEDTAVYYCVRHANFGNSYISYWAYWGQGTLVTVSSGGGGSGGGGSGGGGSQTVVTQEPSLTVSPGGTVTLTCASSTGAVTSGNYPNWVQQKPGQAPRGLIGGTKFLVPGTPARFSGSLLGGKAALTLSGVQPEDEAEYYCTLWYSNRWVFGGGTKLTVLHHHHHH
T15 sequence (chain, as listed by the source): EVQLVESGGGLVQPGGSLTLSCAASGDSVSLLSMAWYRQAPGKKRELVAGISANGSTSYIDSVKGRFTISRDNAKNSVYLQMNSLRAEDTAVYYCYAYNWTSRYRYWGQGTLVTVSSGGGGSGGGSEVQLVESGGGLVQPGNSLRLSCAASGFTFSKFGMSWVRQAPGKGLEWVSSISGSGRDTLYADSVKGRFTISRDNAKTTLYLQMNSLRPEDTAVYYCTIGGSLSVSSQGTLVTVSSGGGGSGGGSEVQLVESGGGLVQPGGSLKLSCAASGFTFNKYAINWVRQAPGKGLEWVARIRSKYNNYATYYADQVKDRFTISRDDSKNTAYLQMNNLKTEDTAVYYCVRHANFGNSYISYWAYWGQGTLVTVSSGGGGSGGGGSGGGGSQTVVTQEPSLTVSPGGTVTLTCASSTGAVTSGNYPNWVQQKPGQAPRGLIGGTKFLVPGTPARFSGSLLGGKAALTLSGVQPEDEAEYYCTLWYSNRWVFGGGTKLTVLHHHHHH
T11 sequence (chain, as listed by the source): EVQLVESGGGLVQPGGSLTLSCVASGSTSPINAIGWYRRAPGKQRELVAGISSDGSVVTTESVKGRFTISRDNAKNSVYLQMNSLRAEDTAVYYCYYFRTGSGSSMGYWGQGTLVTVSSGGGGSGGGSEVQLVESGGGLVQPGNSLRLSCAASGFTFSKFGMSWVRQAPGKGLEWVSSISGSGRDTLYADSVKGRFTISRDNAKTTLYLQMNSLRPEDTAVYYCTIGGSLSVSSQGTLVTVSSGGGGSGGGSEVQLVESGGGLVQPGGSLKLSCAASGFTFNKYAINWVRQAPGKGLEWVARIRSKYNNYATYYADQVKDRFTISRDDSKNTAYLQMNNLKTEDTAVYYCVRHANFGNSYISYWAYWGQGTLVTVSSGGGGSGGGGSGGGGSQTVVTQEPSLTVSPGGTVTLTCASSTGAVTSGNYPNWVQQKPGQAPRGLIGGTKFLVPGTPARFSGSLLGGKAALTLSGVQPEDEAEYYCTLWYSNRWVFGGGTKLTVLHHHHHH
T2 sequence (chain, as listed by the source): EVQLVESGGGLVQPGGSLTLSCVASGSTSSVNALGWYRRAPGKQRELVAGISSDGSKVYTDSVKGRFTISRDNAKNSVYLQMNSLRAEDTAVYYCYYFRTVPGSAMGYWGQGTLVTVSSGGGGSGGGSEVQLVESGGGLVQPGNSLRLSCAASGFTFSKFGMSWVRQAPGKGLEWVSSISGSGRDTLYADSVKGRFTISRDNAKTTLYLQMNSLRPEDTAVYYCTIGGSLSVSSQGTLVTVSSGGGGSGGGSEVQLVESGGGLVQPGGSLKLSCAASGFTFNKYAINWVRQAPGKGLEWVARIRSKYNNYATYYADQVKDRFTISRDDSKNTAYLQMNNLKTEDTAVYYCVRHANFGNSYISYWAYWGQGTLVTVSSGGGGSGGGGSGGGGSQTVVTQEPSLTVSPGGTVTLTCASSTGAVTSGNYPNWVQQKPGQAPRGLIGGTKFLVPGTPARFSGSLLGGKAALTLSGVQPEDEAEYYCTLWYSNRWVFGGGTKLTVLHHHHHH
T9 sequence (chain, as listed by the source): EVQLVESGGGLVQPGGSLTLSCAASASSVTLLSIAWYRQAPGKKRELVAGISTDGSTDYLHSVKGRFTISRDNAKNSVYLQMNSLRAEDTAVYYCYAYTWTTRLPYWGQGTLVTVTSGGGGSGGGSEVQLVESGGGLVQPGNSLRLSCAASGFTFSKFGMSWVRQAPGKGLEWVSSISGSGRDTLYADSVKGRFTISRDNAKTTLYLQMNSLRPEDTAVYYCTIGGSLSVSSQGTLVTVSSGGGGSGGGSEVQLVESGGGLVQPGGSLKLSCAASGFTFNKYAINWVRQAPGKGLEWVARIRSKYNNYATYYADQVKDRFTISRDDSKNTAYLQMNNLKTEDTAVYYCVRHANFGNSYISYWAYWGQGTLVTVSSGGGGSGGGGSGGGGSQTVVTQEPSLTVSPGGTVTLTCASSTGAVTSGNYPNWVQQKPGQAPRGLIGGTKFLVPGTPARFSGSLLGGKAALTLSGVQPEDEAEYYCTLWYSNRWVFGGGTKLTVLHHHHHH
T5 sequence (chain, as listed by the source): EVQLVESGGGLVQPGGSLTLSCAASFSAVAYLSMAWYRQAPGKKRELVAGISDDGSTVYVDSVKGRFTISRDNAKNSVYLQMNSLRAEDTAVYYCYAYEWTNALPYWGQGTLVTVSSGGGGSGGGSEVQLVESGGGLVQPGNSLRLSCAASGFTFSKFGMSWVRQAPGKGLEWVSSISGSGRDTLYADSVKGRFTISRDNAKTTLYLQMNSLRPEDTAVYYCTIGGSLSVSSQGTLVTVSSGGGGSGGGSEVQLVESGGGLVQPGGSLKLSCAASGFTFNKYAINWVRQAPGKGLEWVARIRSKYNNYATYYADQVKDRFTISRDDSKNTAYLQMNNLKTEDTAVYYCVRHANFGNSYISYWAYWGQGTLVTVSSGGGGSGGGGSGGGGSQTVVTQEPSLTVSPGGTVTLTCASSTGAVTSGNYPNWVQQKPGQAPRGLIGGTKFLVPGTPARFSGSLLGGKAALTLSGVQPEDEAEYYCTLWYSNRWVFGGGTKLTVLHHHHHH
T17 sequence (chain, as listed by the source): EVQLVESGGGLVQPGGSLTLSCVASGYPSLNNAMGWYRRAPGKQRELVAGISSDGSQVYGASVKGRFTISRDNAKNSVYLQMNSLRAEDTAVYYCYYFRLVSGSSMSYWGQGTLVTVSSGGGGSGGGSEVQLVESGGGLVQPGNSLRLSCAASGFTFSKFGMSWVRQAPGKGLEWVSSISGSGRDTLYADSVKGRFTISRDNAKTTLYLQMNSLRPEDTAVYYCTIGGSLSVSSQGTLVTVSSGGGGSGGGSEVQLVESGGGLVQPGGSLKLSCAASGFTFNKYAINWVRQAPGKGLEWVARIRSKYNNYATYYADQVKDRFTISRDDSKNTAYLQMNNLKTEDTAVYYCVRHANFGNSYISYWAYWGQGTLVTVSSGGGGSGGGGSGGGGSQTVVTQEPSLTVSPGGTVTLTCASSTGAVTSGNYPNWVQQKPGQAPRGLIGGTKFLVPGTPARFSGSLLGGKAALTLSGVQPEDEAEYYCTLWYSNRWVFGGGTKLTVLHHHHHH
T13 sequence (chain, as listed by the source): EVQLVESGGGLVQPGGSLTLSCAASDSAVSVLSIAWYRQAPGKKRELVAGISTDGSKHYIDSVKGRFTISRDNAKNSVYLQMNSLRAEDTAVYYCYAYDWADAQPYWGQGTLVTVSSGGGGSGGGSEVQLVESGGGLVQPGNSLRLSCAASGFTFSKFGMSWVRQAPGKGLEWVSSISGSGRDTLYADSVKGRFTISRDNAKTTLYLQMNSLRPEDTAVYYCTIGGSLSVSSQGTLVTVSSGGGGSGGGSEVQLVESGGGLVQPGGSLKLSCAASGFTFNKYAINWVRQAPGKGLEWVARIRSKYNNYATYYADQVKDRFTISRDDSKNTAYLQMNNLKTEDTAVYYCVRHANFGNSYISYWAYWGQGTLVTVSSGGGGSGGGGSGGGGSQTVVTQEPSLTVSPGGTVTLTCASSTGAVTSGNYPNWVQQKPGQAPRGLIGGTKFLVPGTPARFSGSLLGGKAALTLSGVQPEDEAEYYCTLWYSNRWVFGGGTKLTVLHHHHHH

B1: biotinylated human DLL3 protein expressed as a human IgG1 fusion protein (Fc fusion, not shown: a dimerising Fc or GST)
chain: AGVFELQIHSFGPGPGPGAPRSPCSARLPCRLFFRVCLKPGLSEEAAESPCALGAALSARGPVYTEQPGAPAPDLPLPDGLLQVPFRDAWPGTFSFIIETWREELGDQIGGPAWSLLARVAGRRRLAAGGPWARDIQRAGAWELRFSYRARCEPPAVGTACTRLCRPRSAPSRCGPGLRPCAPLEDECEAPLVCRAGCSPEHGFCEQPGECRCLEGWTGPLCTVPVSTSSCLSPRGPSSATTGCLVPGPGPCDGNPCANGGSCSETPRSFECTCPRGFYGLRCEVSGVTCADGPCFNGGLCVGGADPDSAYICHCPPGFQGSNCEKRVDRCSLQPCRNGGLCLDLGHALRCRCRAGFAGPRCEHDLDDCAGRACANGGTCVEGGGAHRCSCALGFGGRDCRERADPCAARPCAHGGRCYAHFSGLVCACAPGYMGARCEFPVHPDGASALPAAPPGLRPGDPQRYL
modifications: biotinylated
- Kd [1]: 0.76 nM
- Kd [2]: 4 nM
- Kd [3]: 16 nM
- Kd [4]: 2.2 nM
- Kd [5]: 0.67 nM
- Kd [6]: 25 nM
- Kd [7]: 1.3 nM
- Kd [8]: 7.2 nM
- Kd [9]: 0.31 nM
- Kd [10]: 1.5 nM
- Kd [11]: 2.1 nM
- Kd [12]: 0.97 nM
- Kd [13]: 1.1 nM
- Kd [14]: 4 nM
- Kd [15]: 21 nM
- Kd [16]: 1.4 nM
- Kd [17]: 5.3 nM
